From PMC5389555

Tests used:
HA-GSK3β (wild-type) = HA-GSK3β (wild-type) (UniProt P49841); test: co-IP; HEK293T transfected with HA-GSK3β-WT; anti-HA beads washed in TBS, then RNase A treatment (200 μg/ml) for 15 min at 4°C; blots for p72, DGCR8, Drosha and HA
HA-GSK3β-K85R = HA-GSK3β-K85R (UniProt P49841); test: co-IP; HEK293T transfected with HA-GSK3β-WT, -S9A, -K85R or -K85A,K86A; lysates pre-cleared, EZView anti-HA agarose beads, 4°C overnight; blots for p72, DGCR8 and HA

**Q.** With “p72 (DDX17) (endogenous) (natural protein)” as the substance, how does the percent reduction of co-precipitation after RNase A treatment (HA-GSK3β (wild-type)) read?
**A.** > 50%

**Q.** What about the percent reduction of co-precipitation against GSK3β-WT (HA-GSK3β-K85R) of the same substance?
**A.** 60%
